Assay results from patent publication US20150044137A1.
Positions count from the first letter of the chain named.

Columns and labels:
[1] = target: RSC3 probe; experiment: ELISA-type plate assay (OD450), mAb titrated on RSC3 [panel VRC13c]
[2] = target: RSC3 probe; experiment: ELISA-type plate assay (OD450), mAb titrated on RSC3 [panel VRC13g]
[3] = target: RSC3 probe; experiment: ELISA-type plate assay (OD450), mAb titrated on RSC3 [panel VRC13b]
[4] = target: RSC3 probe; experiment: ELISA-type plate assay (OD450), mAb titrated on RSC3 [panel VRC13e]
[5] = target: RSC3 probe; experiment: ELISA-type plate assay (OD450), mAb titrated on RSC3 [panel VRC13f]
[6] = target: RSC3 probe; experiment: ELISA-type plate assay (OD450), mAb titrated on RSC3 [panel VRC13d]

B1: VRC13c (antibody, V domains shown)
VH: QLQLDQPGAAMKSLGSSLTITCRVSGDDLGSFHFGTYFMIWVRQGPGQGLEYMGGILPSTKTPTYAHKFRGRVSISAPGVPPVLSLALTNLTYDDTATYFCARERGRHFEPKNRDHLEGKFLDLWGRGTFVRVSP
VL: QSVLTQPASVSGSPGQSINISCAGRSDRVSWYQQRPNGVPKLLLFDVYRRPSGVSDRFSGSHSDDTAFLTISGLQTDDEADYYCTSHPYAFGPGTKVNVL
EC50 (read off the curve) [1]: 0.02 µg/mL

B2: VRC13g (antibody, V domains shown)
VH: QIELRQSGAAMKSPGSSVKLSCTVLGENFGTYFISWIRQAPGQGLEWVGGIVPHSQLQSSAQKFHGRIKISGGGTPPVVSLELTNVTFDDTGTYFCARERGRHVEPKTGDRLAGRYFDIWGRGTGLRVSP
VL: QSVLTQPAFVSGSPGQSITISCTVGTTDVSWYQQRPNSAPRLIIFDVKKRPSGVSDRFSGSSSDNAAFLTIAGLRPEDEAEYYCTSWPYRFGRGTKVDVG
EC50 (read off the curve) [2]: 0.02 µg/mL

B3: VRC13b (antibody, V domains shown)
VH: QVQLVQSGTALKSPGSSAKLSCTVLGDEFGTYFISWIRQAPGQGLEWVGGIVPHSQLQSSAQKFHGRIIISAGAGVTPPVVSLQLTNLTFEDTGTYFCARERGRHRDPKTGDALRGRYFDFWGRGTGVSVSA
VL: QSVLTQPAFVSGSPGQSITLSCTLGTEDVSWYQQRPNSAPRLIIFDVKKRPSDVSDRFSGHNSDTAAFLTISELRPEDEAEYFCTSWPYRFGRGTKVDVA
EC50 (read off the curve) [3]: 0.02 µg/mL

B4: VRC13e (antibody, V domains shown)
V domain 1: QPYIVQSGPAVKGAGSSVTVTCKVDGDDDGIFSFGTYFMVWVRQAPGQGLQYMGGLVPSYAPTYAHKFEGRITISAAGTPPVVSLTLLNLTNDDAATYFCARERGRHYDSKTRENRRGRYFDMWGRGTRITVSP
V domain 2: QSVLTQPASVSGSPGQTISISCSGTFGSDSVSWYQQYPNSAPTLIIFDVHRRPSGISTRFSGSTSGDTASLTISTLHREDEAYYYCTSHPYDFGGGTYVIVL
EC50 (read off the curve) [4]: 0.02 µg/mL

B5: VRC13f (antibody, V domains shown)
V domain 1: B4 V domain 1 with K23R, S33N, L88I, D93A
V domain 2: B4 V domain 2 with Y37F, Y83F
EC50 (read off the curve) [5]: 0.02 µg/mL

B6: VRC13d (antibody, V domains shown)
VH: QVQLVQSGAVVKSPGSSAKLSCRLLGDEFGTYFISWIRQAPGRGLEWVGGIVPHSQLQSSAQKFHGRFFITGGVTPPIIFLQLTNVTFEDTGTYFCARERGRHRDPKTGKSLRGRYFDFWGRGTGVTVSP
VL: QSVLTQPAFVSASPGQSITLSCNLGTDYVSWYQQRPSSAPRLIIFDVKNRPSGVSDRFSGYNSDTAAFLTISGLQPEDEAEYYCTSWPYNFGPGTKVDVT
EC50 (read off the curve) [6]: 0.02 µg/mL
